The target in series [1] is T1, YbxF/OapC WT (Bacillus halodurans C-125) (UniProt Q9Z9M0).
T1 sequence: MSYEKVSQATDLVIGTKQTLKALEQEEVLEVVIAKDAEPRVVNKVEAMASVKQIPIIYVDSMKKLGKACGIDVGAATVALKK
Briefly: filter binding. As to conditions: Filter binding: 20 mM Tris-HCl pH 7.5, 150 mM NaCl, 10 mM MgCl2, 1 mM TCEP, ~20 C, 15 min, ~10 pM RNA.

The target of series [2] is T1, YbxF/OapC WT (Bacillus halodurans C-125). Briefly: footprinting (in-line probing). The following applies: Filter binding: 20 mM Tris-HCl pH 7.5, 150 mM NaCl, 10 mM MgCl2, 1 mM TCEP, ~20 C, 15 min, ~10 pM RNA.
For series [3], the target named is T2, YbxF/OapC WT (Bacillus halodurans C-125, UniProt Q9Z9M0 1-82).
T2 sequence: T1 sequence
Briefly: filter binding; Filter binding: 20 mM Tris-HCl pH 7.5, 150 mM NaCl, 10 mM MgCl2, 1 mM TCEP, ~20 C, 15 min, ~10 pM RNA. The following applies: protein: recombinant, tags: N-terminal His6 + PreScission (3C) site, label: 5' 32P.

Series [4] deals with T2, YbxF/OapC WT. Briefly: filter binding; no binding at 1 uM or higher protein; Filter binding: 20 mM Tris-HCl pH 7.5, 150 mM NaCl, 10 mM MgCl2, 1 mM TCEP, ~20 C, 15 min, ~10 pM RNA. The following applies: protein: recombinant; tags: N-terminal His6 + PreScission (3C) site; label: 5' 32P; hairpin.

In the case of “GGCACAUCGAUGAAGCUCCUUGUGAUGGCUUGAGGCGCCCAGCCUUGGGUCAUUGCUGGGAGAAAAGGUAGUAGGGCGAUCCACAAAGGCAUGUGGGCGAUGACCCUCCUACUGUGGAGGCCUUUUUCUCUGCUGCUUAUGUAUGGACAUAGG [OLE78-230]”, in series [1], the binding entry is “binds more weakly”. Regarding “GGCACAUCGAUGAAGCUCCUUGUGAUGGCUUGAGGCGCCCAGCCUUGGGUCAUUGCUGGGAGAAAAGGUAGUAGGGCGAUCCACAAAGGCAUGUGGGCGAUGACCCUCCUACUGUGGAGGCCUUUUUCUCUGCUGCUUAUGUAUGGACAUAGGGCAAGAGCAAAGGGUAUGAACCUGCGAAGGCAAGCUAGGGAGCUUGUCAGCAGCGUAGCC [OLE78-290]”, the binding result in series [1] and in series [2] was “binds” each time. On to “GGCAUUUAAAGAGGAUUACAGUGUGGACUAAGUGGUAAUCCAGUCUGGCGUUUGGUGACAGCGCCAAGUUCAACAUAAAGGGAAACCGCCAGCGCGGCGACGCACUGGUGUUGAAUUGGGAAAUCCUACUGGACCUAAGCCACAGAGUUUACUCUUUAAAUG [OLE449-608]”, for which the binding entry in series [1] is reported as “no binding”.

In the case of “GGCCUUGAGUGGAGUAGAGGGGAUUAUGGGUUUUGAAGCAAUCCGCUGUCGGCCAACAGCCAUUGCCUCUCUAGUACCAUAUGAAAUCUGCUCUGCAAAAGAG [OLE293-394]”, in series [1], the binding result was “no binding”. In the case of GGAUCGAUGAAGCUCCCGAAAGGGAGAAAAGGUA (structured_RNA) [OLE k-turn WT], the binding result in series [3] (hairpin with k-turn) was “binds”. On the same count and under the same terms, under GGACCGAUGAAGCUCCCGAAAGGGAGAAAAGGUA (structured_RNA) [OLE k-turn U84C] stands “binds”. With GGAUAGAUGAAGCUCCCGAAAGGGAGAAAAGGUA (structured_RNA) [OLE k-turn C85A], the binding result in series [4] is on record as “no binding”.

B1: OLE83-147 (structured_RNA)
RNA: GGAUCGAUGAAGCUCCUUGUGAUGGCUUGAGGCGCCCAGCCUUGGGUCAUUGCUGGGAGAAAAGGUA
With B1, the binding result in series [3] is “binds”.

The values above are taken from article PMC9723947, “Ornate, large, extremophilic (OLE) RNA forms a kink turn necessary for OapC protein recognition and RNA function”.
